The values below come from patent publication US20140308281A1 (OSE IMMUNOTHERAPEUTICS, published 2014).

Where a chain is given by its changes, count along the chain named.

The chains are these.
B1: MD707-13 (antibody, V domains shown)
VH: QLKESGPGLVQPSQTLSLTCTVSGLSLPNNNIAWIRQSPGKGLEWMGVIWSNGDTDYNSAIRSRLSISRDSSKSQVFLRMNSLQSEDTAMYFCAREGMTTLDYWGQGVVVTVSS
VL: EIVLTQSPTTMAASPGEKVTITCRASSSVSYMHWFQQKSGSSPKPWIYDSSDLASGVPDRFSGSGSGTSYSLTISSMEAEDAATYYCLQRSSYPRTFGGGTKLELKR
notes: also called 7MD07-13; rat anti-human CD127 Mab MD707-13
B2: MD707-1 (antibody, V domains shown)
VH: AVHLVESGGGLVQPKESLKISCAASGFTFSNAAMFWVRQAPGKGLEWVARIRTKANNYATYYADSVKGRFTISRDDSKSMVYLQMDNVKTDDTAMYYCIVVVLTTTRDYFDYWGQGVMVTVSS
VL: DIVLTQAPLSVSVTPGESASISCRSSQSLLTVKGITSLYWFLQKPGKSPQLLMYRMSNLASGVPDRFRGSGSETDFTLKISKVETEDVGVYYCAQFLEYPHTFGAGTKLELKR
notes: also called 7MD07-1; rat anti-human CD127 Mab MD707-1
B3: MD707-3 (antibody, V domains shown)
VH: B2 VH with F35Y, D64E
VL: B2 VL with M53I
notes: also called 7MD07-3; rat anti-human CD127 Mab MD707-3

The target of this experiment is T1, CD127 (as used in the BIAcore measurement of Table 1) (human, UniProt P16871 21-239, limits assumed).
T1 construct: the Mabs are called anti-human CD127; also called alpha chain of the IL-7 receptor; IL-7Ralpha
T1 sequence (looked up): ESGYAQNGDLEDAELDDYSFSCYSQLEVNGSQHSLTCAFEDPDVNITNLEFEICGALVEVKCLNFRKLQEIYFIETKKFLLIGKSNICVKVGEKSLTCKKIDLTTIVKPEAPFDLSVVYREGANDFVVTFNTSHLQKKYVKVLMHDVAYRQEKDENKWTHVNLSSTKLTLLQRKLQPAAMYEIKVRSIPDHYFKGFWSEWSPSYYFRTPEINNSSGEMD
In words: SPR (BIAcore).
The molecule B1 had a Kd of 1.31 nM.

As for B2, binding was characterised by a dissociation constant (Kd) of 15.9 nM.

B3 came in with a Kd of 6.52 nM.
